Test results taken from the supplement of paper PMC10567573.

B1: KRT33B (parent)
chain: PAVDLNQVLNETRNQYEALVETNR

Variants of: B1
Assay: protein stability index of a GFP-peptide fusion (GPS, HEK-293T) (PSI 1-6); higher = more stable
Conditions: c terminus: a fixed tail appended
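Note: lentivirally expressed fusions sorted by FACS into six bins by GFP to DsRed ratio, PSI derived from sequencing read proportions per bin multiplied by bin number.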

Row | Variant | protein stability index
1 | PAVDLNYVLNETRNQYEALVETNR [Q7Y] | 3.83
2 | PAVDLNQVLVETRNQYEALVETNR [N10V] | 3.22
3 | PAVDLNQVLDETRNQYEALVETNR [N10D] | 3.3
4 | PAVDLNQVLFETRNQYEALVETNR [N10F] | 2.44
5 | PAVDLNQVLHETRNQYEALVETNR [N10H] | 3.74
6 | PAVDLNQVLAETRNQYEALVETNR [N10A] | 2.98
7 | PAVDLNQVLSETRNQYEALVETNR [N10S] | 3.31
8 | PAVDLNQVLEETRNQYEALVETNR [N10E] | 2.09
9 | PAVDLNQVLRETRNQYEALVETNR [N10R] | 2.76
10 | PAVDLNQVLTETRNQYEALVETNR [N10T] | 2.67
11 | PAVDLNQVLKETRNQYEALVETNR [N10K] | 2.74
12 | PAVDLNQVLLETRNQYEALVETNR [N10L] | 2.56
13 | PAVDLNQVLIETRNQYEALVETNR [N10I] | 2.64
14 | PAVDLNQVLQETRNQYEALVETNR [N10Q] | 2.58
15 | PAVDLNQVLCETRNQYEALVETNR [N10C] | 3.59
16 | PAVDLNQVLGETRNQYEALVETNR [N10G] | 4.34
17 | PAVDLNQVLPETRNQYEALVETNR [N10P] | 4.84
18 | PAVDLNQVLMETRNQYEALVETNR [N10M] | 2.23
19 | PAVDLNQVLWETRNQYEALVETNR [N10W] | 2.37
20 | PAHDLNQVLNETRNQYEALVETNR [V3H] | 4.33
21 | PANDLNQVLNETRNQYEALVETNR [V3N] | 4.25
22 | PAFDLNQVLNETRNQYEALVETNR [V3F] | 4.36
23 | PAMDLNQVLNETRNQYEALVETNR [V3M] | 2.7
24 | PAYDLNQVLNETRNQYEALVETNR [V3Y] | 3.56

Row | Variant | protein stability index
25 | PAIDLNQVLNETRNQYEALVETNR [V3I] | 3.77
26 | PAADLNQVLNETRNQYEALVETNR [V3A] | 3.85
27 | PADDLNQVLNETRNQYEALVETNR [V3D] | 4.77
28 | PAQDLNQVLNETRNQYEALVETNR [V3Q] | 3.29
29 | PAWDLNQVLNETRNQYEALVETNR [V3W] | 4.12
30 | PATDLNQVLNETRNQYEALVETNR [V3T] | 3.87
31 | PACDLNQVLNETRNQYEALVETNR [V3C] | 2.81
32 | PASDLNQVLNETRNQYEALVETNR [V3S] | 3.64
33 | PARDLNQVLNETRNQYEALVETNR [V3R] | 3.4
34 | PAKDLNQVLNETRNQYEALVETNR [V3K] | 3.83
35 | PAGDLNQVLNETRNQYEALVETNR [V3G] | 4.65
36 | PAEDLNQVLNETRNQYEALVETNR [V3E] | 4.05
37 | PAPDLNQVLNETRNQYEALVETNR [V3P] | 4.99
38 | LAVDLNQVLNETRNQYEALVETNR [P1L] | 3.46
39 | MAVDLNQVLNETRNQYEALVETNR [P1M] | 3.71
40 | AAVDLNQVLNETRNQYEALVETNR [P1A] | 3.25
41 | EAVDLNQVLNETRNQYEALVETNR [P1E] | 2.98
42 | VAVDLNQVLNETRNQYEALVETNR [P1V] | 3.15
43 | TAVDLNQVLNETRNQYEALVETNR [P1T] | 3.72
44 | DAVDLNQVLNETRNQYEALVETNR [P1D] | 4.32
45 | RAVDLNQVLNETRNQYEALVETNR [P1R] | 3.7
46 | KAVDLNQVLNETRNQYEALVETNR [P1K] | 3.66
47 | GAVDLNQVLNETRNQYEALVETNR [P1G] | 4.39
48 | YAVDLNQVLNETRNQYEALVETNR [P1Y] | 3.33

Row | Variant | protein stability index
49 | NAVDLNQVLNETRNQYEALVETNR [P1N] | 4.23
50 | HAVDLNQVLNETRNQYEALVETNR [P1H] | 4.02
51 | SAVDLNQVLNETRNQYEALVETNR [P1S] | 4.42
52 | FAVDLNQVLNETRNQYEALVETNR [P1F] | 2.78
53 | IAVDLNQVLNETRNQYEALVETNR [P1I] | 2.69
54 | WAVDLNQVLNETRNQYEALVETNR [P1W] | 3.26
55 | QAVDLNQVLNETRNQYEALVETNR [P1Q] | 3.26
56 | CAVDLNQVLNETRNQYEALVETNR [P1C] | 2.89
57 | PAVDENQVLNETRNQYEALVETNR [L5E] | 4.53
58 | PAVDDNQVLNETRNQYEALVETNR [L5D] | 4.64
59 | PAVDANQVLNETRNQYEALVETNR [L5A] | 3.8
60 | PAVDCNQVLNETRNQYEALVETNR [L5C] | 3.97
61 | PAVDVNQVLNETRNQYEALVETNR [L5V] | 3.02
62 | PAVDQNQVLNETRNQYEALVETNR [L5Q] | 4.78
63 | PAVDGNQVLNETRNQYEALVETNR [L5G] | 5.15
64 | PAVDFNQVLNETRNQYEALVETNR [L5F] | 3.38
65 | PAVDTNQVLNETRNQYEALVETNR [L5T] | 4.48
66 | PAVDWNQVLNETRNQYEALVETNR [L5W] | 2.52
67 | PAVDKNQVLNETRNQYEALVETNR [L5K] | 4.79
68 | PAVDMNQVLNETRNQYEALVETNR [L5M] | 4
69 | PAVDNNQVLNETRNQYEALVETNR [L5N] | 5.02
70 | PAVDHNQVLNETRNQYEALVETNR [L5H] | 3.83
71 | PAVDINQVLNETRNQYEALVETNR [L5I] | 3.47
72 | PAVDYNQVLNETRNQYEALVETNR [L5Y] | 3.44

Row | Variant | protein stability index
73 | PAVDRNQVLNETRNQYEALVETNR [L5R] | 4.4
74 | PAVDPNQVLNETRNQYEALVETNR [L5P] | 4.03
75 | PAVDSNQVLNETRNQYEALVETNR [L5S] | 4.78
76 | PKVDLNQVLNETRNQYEALVETNR [A2K] | 3.87
77 | PNVDLNQVLNETRNQYEALVETNR [A2N] | 4.4
78 | PQVDLNQVLNETRNQYEALVETNR [A2Q] | 3.11
79 | PPVDLNQVLNETRNQYEALVETNR [A2P] | 3.14
80 | PGVDLNQVLNETRNQYEALVETNR [A2G] | 3.95
81 | PIVDLNQVLNETRNQYEALVETNR [A2I] | 2.84
82 | PWVDLNQVLNETRNQYEALVETNR [A2W] | 1.59
83 | PLVDLNQVLNETRNQYEALVETNR [A2L] | 3.25
84 | PMVDLNQVLNETRNQYEALVETNR [A2M] | 2.4
85 | PYVDLNQVLNETRNQYEALVETNR [A2Y] | 2.02
86 | PEVDLNQVLNETRNQYEALVETNR [A2E] | 2.26
87 | PVVDLNQVLNETRNQYEALVETNR [A2V] | 3.11
88 | PFVDLNQVLNETRNQYEALVETNR [A2F] | 2.39
89 | PRVDLNQVLNETRNQYEALVETNR [A2R] | 3.57
90 | PDVDLNQVLNETRNQYEALVETNR [A2D] | 4.82
91 | PSVDLNQVLNETRNQYEALVETNR [A2S] | 3.23
92 | PHVDLNQVLNETRNQYEALVETNR [A2H] | 3.93
93 | PTVDLNQVLNETRNQYEALVETNR [A2T] | 3.52
94 | PCVDLNQVLNETRNQYEALVETNR [A2C] | 2.87
